According to IntAct's records for PubMed 17572682:

B1: Protein CBFA2T1 (Homo sapiens), Q06455 (parent)
chain: MISVKRNTWRALSLVIGDCRKKGNFEYCQDRTEKHSTMPDSPVDVKTQSRLTPPTMPPPPTTQGAPRTSSFTPTTLTNGTSHSPTALNGAPSPPNGFSNGPSSSSSSSLANQQLPPACGARQLSKLKRFLTTLQQFGNDISPEIGERVRTLVLGLVNSTLTIEEFHSKLQEATNFPLRPFVIPFLKANLPLLQRELLHCARLAKQNPAQYLAQHEQLLLDASTTSPVDSSELLLDVNENGKRRTPDRTKENGFDREPLHSEHPSKRPCTISPGQRYSPNNGLSYQPNGLPHPTPPPPQHYRLDDMAIAHHYRDSYRHPSHRDLRDRNRPMGLHGTRQEEMIDHRLTDREWAEEWKHLDHLLNCIMDMVEKTRRSLTVLRRCQEADREELNYWIRRYSDAEDLKKGGGSSSSHSRQQSPVNPDPVALDAHREFLHRPASGYVPEEIWKKAEEAVNEVKRQAMTELQKAVSEAERKAHDMITTERAKMERTVAEAKRQAAEDALAVINQQEDSSESCWNCGRKASETCSGCNTARYCGSFCQHKDWEKHHHICGQTLQAQQQGDTPAVSSSVTPNSGAGSPMDTPPAATPRSTTPGTPSTIETTPR

Variants of: B1
Conditions: with ncor1_human NCOR1, O75376
Chain of ncor1_human NCOR1, O75376 (O75376 whole entry): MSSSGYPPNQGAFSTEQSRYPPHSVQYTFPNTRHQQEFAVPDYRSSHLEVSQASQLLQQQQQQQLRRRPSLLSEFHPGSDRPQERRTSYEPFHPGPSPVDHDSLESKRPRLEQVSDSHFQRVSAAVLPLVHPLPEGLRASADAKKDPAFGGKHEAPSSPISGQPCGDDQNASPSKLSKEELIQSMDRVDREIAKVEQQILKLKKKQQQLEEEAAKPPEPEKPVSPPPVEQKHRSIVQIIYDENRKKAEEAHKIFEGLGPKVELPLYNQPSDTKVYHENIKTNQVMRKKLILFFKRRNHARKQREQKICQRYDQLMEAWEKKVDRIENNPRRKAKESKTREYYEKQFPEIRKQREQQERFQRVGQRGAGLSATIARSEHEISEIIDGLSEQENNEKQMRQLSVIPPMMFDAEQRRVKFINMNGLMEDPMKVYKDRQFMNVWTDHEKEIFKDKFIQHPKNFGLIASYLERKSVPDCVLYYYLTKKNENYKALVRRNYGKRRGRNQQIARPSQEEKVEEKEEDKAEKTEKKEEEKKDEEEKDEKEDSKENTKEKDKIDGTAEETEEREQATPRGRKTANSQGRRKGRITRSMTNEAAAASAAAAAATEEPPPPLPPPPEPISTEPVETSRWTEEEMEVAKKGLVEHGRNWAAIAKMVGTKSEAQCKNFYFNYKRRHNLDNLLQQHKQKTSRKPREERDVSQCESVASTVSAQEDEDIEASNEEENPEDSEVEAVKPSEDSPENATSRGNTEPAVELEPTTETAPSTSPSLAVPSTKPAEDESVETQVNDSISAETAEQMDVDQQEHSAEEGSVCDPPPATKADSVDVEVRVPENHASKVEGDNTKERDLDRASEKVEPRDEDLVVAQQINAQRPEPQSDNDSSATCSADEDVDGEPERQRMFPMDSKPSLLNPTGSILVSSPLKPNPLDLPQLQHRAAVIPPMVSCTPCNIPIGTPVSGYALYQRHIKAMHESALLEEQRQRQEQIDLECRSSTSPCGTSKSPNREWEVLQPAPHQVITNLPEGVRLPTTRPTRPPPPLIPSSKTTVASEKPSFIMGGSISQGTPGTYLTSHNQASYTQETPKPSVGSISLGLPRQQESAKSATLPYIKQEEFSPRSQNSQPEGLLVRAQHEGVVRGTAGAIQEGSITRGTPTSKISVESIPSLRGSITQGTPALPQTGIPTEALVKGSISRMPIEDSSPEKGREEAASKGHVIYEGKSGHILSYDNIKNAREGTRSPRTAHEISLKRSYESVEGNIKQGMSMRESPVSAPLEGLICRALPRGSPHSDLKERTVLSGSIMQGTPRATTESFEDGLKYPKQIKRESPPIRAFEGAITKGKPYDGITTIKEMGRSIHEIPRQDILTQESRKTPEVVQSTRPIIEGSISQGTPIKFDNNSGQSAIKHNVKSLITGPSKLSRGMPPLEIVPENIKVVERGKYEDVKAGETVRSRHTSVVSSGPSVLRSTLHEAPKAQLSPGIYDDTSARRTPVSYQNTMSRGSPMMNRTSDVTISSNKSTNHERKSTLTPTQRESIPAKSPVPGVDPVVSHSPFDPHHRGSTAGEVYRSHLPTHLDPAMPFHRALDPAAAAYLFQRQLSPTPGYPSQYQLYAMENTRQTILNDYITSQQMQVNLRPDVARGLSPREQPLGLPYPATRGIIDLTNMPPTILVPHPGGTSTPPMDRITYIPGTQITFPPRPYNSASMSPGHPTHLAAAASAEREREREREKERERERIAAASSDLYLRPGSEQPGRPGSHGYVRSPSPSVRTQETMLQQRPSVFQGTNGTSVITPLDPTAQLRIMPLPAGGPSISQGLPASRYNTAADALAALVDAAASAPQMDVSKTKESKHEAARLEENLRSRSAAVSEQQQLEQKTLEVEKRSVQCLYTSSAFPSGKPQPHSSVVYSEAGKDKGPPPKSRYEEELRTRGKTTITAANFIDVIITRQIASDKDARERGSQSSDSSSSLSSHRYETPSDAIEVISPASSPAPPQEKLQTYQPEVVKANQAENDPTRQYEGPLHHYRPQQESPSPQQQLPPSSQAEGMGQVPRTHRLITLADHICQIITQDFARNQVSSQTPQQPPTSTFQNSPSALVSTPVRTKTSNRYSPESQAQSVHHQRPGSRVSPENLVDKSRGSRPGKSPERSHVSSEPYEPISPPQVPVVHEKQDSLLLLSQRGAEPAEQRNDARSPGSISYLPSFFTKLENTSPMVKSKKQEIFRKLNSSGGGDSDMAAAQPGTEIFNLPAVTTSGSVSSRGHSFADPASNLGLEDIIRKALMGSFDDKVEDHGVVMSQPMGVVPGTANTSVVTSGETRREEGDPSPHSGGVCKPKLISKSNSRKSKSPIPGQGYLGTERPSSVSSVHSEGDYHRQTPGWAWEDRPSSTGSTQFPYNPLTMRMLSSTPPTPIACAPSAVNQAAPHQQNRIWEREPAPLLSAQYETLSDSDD

| Variant | effect of a mutation on the interaction |
| --- | --- |
| T173Q | decreasing interaction |
| F129K | decreasing interaction |
| Q170A | decreasing interaction |
| F175A | decreasing interaction |
| F136A | decreasing interaction |
| L177A | decreasing interaction |
